Assay results taken from the supplement of paper PMC10567573.

B1: ZNF649 (parent)
chain: EHERAHRGEKPHGCSLCGKAFYKR
B2: STX5 (parent)
chain: RSEFTLMAKRIGKDLSNTFAKLEK

Variants of: B1
Assay: protein stability index of a GFP-peptide fusion (GPS, HEK-293T) (PSI 1-6); higher = more stable
Conditions: c terminus: a fixed tail appended
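Further: lentivirally expressed fusions sorted by FACS into six bins by GFP to DsRed ratio, PSI derived from sequencing read proportions per bin multiplied by bin number.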

Protein stability index of substitutions, site by site:
F21: D 2.34 | V 2.01 | L 3.61 | S 2.13 | P 2.74 | G 2.11 | C 2.13 | H 3.38 | M 2.37 | T 2.14 | Y 2.95
A5: V 1.62 | G 1.52 | C 2.8 | T 3.23 | Q 2.42 | H 2.23 | E 1.83 | K 1.74 | L 2.24 | W 1.62 | F 2.8 | N 2.18 | D 1.88 | R 2.76 | Y 2.58 | S 1.09 | I 1.34
G18: T 2.34 | M 1.72 | W 1.54 | H 2.15 | D 2.45 | Q 1.89 | S 2.5 | I 1.67 | R 3.06 | V 2 | E 2.77 | L 2.42 | C 1.59 | N 2.49 | K 2.03 | Y 1.85 | A 1.43
C14: D 4.54 | I 4.24 | K 4.59 | P 3.12 | S 4.83 | R 3.73 | V 4.78 | Y 3.56 | A 4.66 | N 4.12 | H 4.25 | L 3.94 | G 4.18 | F 2.69 | T 3.91
E3: C 2.74 | V 3.49 | G 1.81 | T 1.89 | F 2.67 | A 1.5 | N 2.47 | L 1.92 | R 1.96 | I 1.78 | D 2.01 | H 2.72 | M 1.61 | Y 1.95
C17: Q 4.46 | R 4.43 | E 2.58 | Y 2.48 | K 4.13 | M 3.87 | D 4.19 | G 4.07 | F 3.48 | S 3.35 | L 3.64 | N 4.44 | V 3.18 | H 3.67 | W 3 | P 3.85 | T 4.48 | I 3.81
H12: M 3.47 | K 2.49 | G 1.89 | Q 2.18 | C 1.46 | F 3.39 | I 4.08 | R 1.66 | E 2 | P 1.7 | W 1.64 | A 2.74 | S 1.32 | N 1.47
L16: G 3.96 | R 2.18 | C 3.54 | N 2.07 | T 2.16 | M 1.74 | K 2.79 | V 3.34 | P 3.48 | D 3.82 | A 3.17 | S 1.97 | E 3.8 | Q 3.02 | F 1.83 | Y 2.14 | I 2.2
K23: G 2.65 | D 1.9 | C 2.64 | Q 2.24 | I 1.92 | L 1.77 | R 3.06 | M 3 | H 1.83
R7: G 1.61 | I 1.69 | D 1.98 | P 2.63 | N 3.32 | S 2.23 | M 2.72 | H 2.31 | Y 1.82 | W 2.02 | F 1.32 | C 1.65 | E 1.95 | Q 2.02 | K 2.34 | L 1.48
A20: T 2.17 | D 2.51 | M 2.62 | R 2.78 | V 1.79 | I 1.95 | K 2.74 | N 1.83 | Y 1.75 | C 2 | F 2.57 | H 3.2
G8: Q 3.17 | P 2.78 | M 1.8 | I 2.01 | F 2.22 | W 2.21 | E 2.27 | K 2.27 | D 1.93 | H 2.83 | T 1.91 | N 2.12 | Y 3.18 | S 1.99
R4: T 1.95 | P 2.6 | W 1.88 | V 2.93 | H 2.05 | M 2.08 | I 1.91 | N 2.23 | Y 1.5 | Q 1.59 | A 1.97 | E 2.14 | G 2.55 | C 3.31
Y22: F 2.95 | L 2.68 | P 1.52 | N 2.35 | W 1.81 | V 1.36 | I 1.93 | A 2.22 | K 3.13 | T 1.93 | Q 2.36 | D 2.48 | M 2.69
H2: P 1.98 | Y 1.65 | W 1.03 | M 2.06 | D 2 | T 3.15 | F 2.8 | C 2.01 | V 1.07 | L 1.6 | Q 3.21 | N 1.93 | S 1.75 | I 2 | G 1.02
P11: M 2.31 | H 2.41 | C 2.51 | Y 2.01 | W 1.9 | A 2.08 | R 1.45 | E 3.19 | V 1.79 | G 1.55 | N 2.33 | T 2.54
E1: D 2.2 | I 1.49 | P 2.15 | M 1.88 | R 1.7 | K 3.37 | A 2.16 | N 1.69 | W 1.85 | H 1.86 | T 3.46 | V 2.77 | Y 2.38 | Q 2.07
K19: H 2.44 | D 2.13 | V 1.44 | P 1.42 | N 2.43 | Y 2.19 | A 1.61 | E 1.73 | G 1.41 | C 1.78 | M 2.01 | T 1.97 | I 1.61
K10: F 2.98 | E 2.87 | N 1.19 | A 2.12 | W 1.67 | M 2.28 | D 2.27 | S 1.66 | R 1.01 | T 3.02 | V 1.76 | Q 3.07 | Y 1.7 | I 1.69
G13: C 1.9 | A 2.43 | Y 3.31 | I 3.07 | V 2.03 | S 1.95 | N 2.89 | M 3.08 | T 2.42 | L 2.2 | E 2.48 | F 2.72 | P 1.88
H6: G 1.21 | M 2.27 | Q 1.31 | D 2.01 | V 1.58 | Y 1.61 | F 2.04 | L 1.61 | I 1.54 | K 1.04 | W 1.78 | N 2.06 | E 1.06
S15: H 5.95 | L 2.27 | M 1.93 | Q 1.41 | G 1.56 | I 2.01 | E 2.21 | Y 2.48 | D 3.14 | K 3.12 | R 2.23 | A 1.84 | W 1.72 | N 2.39 | V 1.67 | P 4.16
E9: H 2.13 | C 3.6 | V 1.42 | Y 2.19 | M 2.08 | R 3.66 | W 1.59 | I 1.86 | A 2.28 | N 1.85 | T 1.81 | L 2.16 | S 1.72 | F 2.21

Variants of: B2
Assay: as above
Conditions: c terminus: a fixed tail appended

Protein stability index: each site, then its substitutions
A20: P 3.3
I11: D 3.84
K21: D 1.91
T18: Q 2.02
F4: A 2.48
R10: W 2.02
E23: M 1.34
T5: E 1.35
A8: H 3.46
